Data reported in the DeepSol protein solubility set.

Assay: soluble on expression in E. coli; label from the status in PepcDB or PDB records
In the case of “ASWSHPQFEKGAMALTEAWLIEKANRKLNAGGMYKITSDKTRNVIKKMAKEGIYLCVAQGYRSTAEQNALYAQGRTKPGAIVTNAKGGQSNHNYGVAVDLCLYTNDGKDVIWESTTSRWKKVVAAMKAEGFKWGGDWKSFKDYPHFELCDAVSGEKIPAATQNTNTNSNRYEGKVIDSA”, the “soluble on expression in E. coli” value is reported as “soluble”.
For “ATDTGGYAATAGGNVTGAVSKTATSMQDIVNIIDAARLDANGKKVKGGAYPLVITYTGNEDSLINAAAANICGQWSKDPRGVEIKEFTKGITIIGANGSSANFGIWIKKSSDVVVQNMRIGYLPGGAKDGDMIRVDDSPNVWVDHNELFAANHECDGTPDNDTTFESAVDIKGASNTVTVSYNYIHGVKKVGLDGSSSSDTGRNITYHHNYYNDVNAKLPLQRGGLVHAYNNLYTNITGSGLNVRQNGQALIENNWFEKAINPVTSRYDGKNFGTWVLKGNNITKPADFSTYSITWTADTKPYVNADSWTSTGTFPTVAYNYSPVSAQCVKDKLPGYAGVGKNLATLTSTACK”, the “soluble on expression in E. coli” value was “soluble”.
For “ATEEEYQLFLEPYLQETRLGAYDFPLFSTIFKAFSKKGSFKSLIDPYCFGQALSNGRAITFVVTHDIPNNDVFLDLIMDEEDEWIAYAYILGRDGGVPLVYTDLDTSGIKNKNGKPRWKDAWNDPRMAKMIAFHNVTHGESMTVLEGNDDMLVLKRGEKGIVVLNKSTRAQSLSLKTECDWFDLMSDQSVKAGIELKVPAKSFMLLVQK”, the “soluble on expression in E. coli” value was “not soluble”.
For “AVKRRPRFPVNSNSNGGNELCPKIRIGQDDLPGFDLISQFQVDKAASRRAIQRVVGSATLQVAYKLGNNVDFRIPTRNLYPSGLPEEYSFLTTFRMTGSTLKKNWNIWQIQDSSGKEQVGIKINGQTQSVVFSYKGLDGSLQTAAFSNLSSLFDSQWHKIMIGVERSSATLFVDCNRIESLPIKPRGPIDIDGFAVLGKLADNPQVSVPFELQWMLIHCDPLRPRRETCHELPARITPSQTTDER”, the “soluble on expression in E. coli” value was “soluble”.
For “AVNEENIMIPKGVEVYEITGPYFFGIATKFEETMAQLGDRPNVRIIRMRKVPFIDSTGIHNLTTLCEMSQKEKITVILSGVNEKVYKVLEKSGFYELLGKENICPNFKIALDRAEEVMK”, the “soluble on expression in E. coli” value was “soluble”.
For “AVRQLDRQGRDDVEVAVLAPQPELRIRPRFYEPDVQRMAAPLGELFAAVGVRFVQGSAQRIDVAGKRVEYRDAEGTLAQLDYDRLVLAAGSGVWRPASVAGIDAAFDVDQLEDALRLEAHLHALRDLPDSPARNTVVVAGGGFTGIETATEMPARLRAILGEKAALRVIVVDRGAAIGASMGADLSGLIAEASAELGVEWCLGRSVAAVDAEGVTLDDGQRIEAKTVVWTVGVRASTLTGQIPGERDAQGRLHVDRNLKVLGLDDVYATGDVARAATDDLGNHALMTCQHAIALGRSAGNNVAADLLGVEPIPYSQVKYVTCLDLGGWGAVFTEGWDRQVRFVREEGKKIKTEINGVWIYPPAADRAVALAAADPLIPVVA”, the “soluble on expression in E. coli” value was “not soluble”.
For “AVSFTGVSGVKNIVAVTACPTGVAHTFMSAEAIEAYAKKQGWNVKVETRGQVGAGNEITVEEVAAADLVFVAADIDVPLDKFKGKPMYRTSTGLALKKTEQEFDKAFKEAKIF”, the “soluble on expression in E. coli” value was “not soluble”.
In the case of “AWVDQTPRTITKETGESLTIKCVLKDHSCGLSSTTWYRTQLGSTNEKTISIGGRYDETVDKGSKSFSLRISDLRVEDSGTYKCQADYSPSCYSYPSLESAVEGAGTVLTVK”, the “soluble on expression in E. coli” value is reported as “soluble”.
For “CGVFGIWGHEEAPQITYYGLHSLQHRGQEGAGIVATDGEKLTAHKGQGLITEVFQNGELSKVKGKGAIGHVRYATAGGGGYENVQPLLFRSQNNGSLALAHNGNLVNATQLKQQLENQGSIFQTSSDTEVLAHLIKRSGHFTLKDQIKNSLSMLKGAYAFLIMTETEMIVALDPNGLRPLSIGMMGDAYVVASETCAFDVVGATYLREVEPGEMLIINDEGMKSERFSMNINRSICSMEYIYFSRPDSNIDGINVHSARKNLGKMLAQESAVEADVVTGVPDSSISAAIGYAEATGIPYELGLIKNRYVGRTFIQPSQALREQGVRMKLSAVRGVVEGKRVVMVDDSIVRGTTSRRIVTMLREAGATEVHVKISSPPIAHPCFYGIDTSTHEELIASSHSVEEIRQEIGADTLSFLSVEGLLKGIGRKYDDSNCGQCLACFTGKYPTEIYQDTVLPHVK”, the “soluble on expression in E. coli” value was “soluble”.
In the case of “CISMSKIAVVINPIAGGGRGKKVWKVLKPGLHALFEQTVYRISNRVNDLEAITDGLLAENPDSLLIIGGDGTLNHVLNGLIEKDKLKNPQTKIAFFNAGCGGDFTRQFPQQKMTEFLDRLSHNQFIKCDIGKITLAN”, the “soluble on expression in E. coli” value is reported as “not soluble”.
For “DADPTFDFIGYLETLPQTSGMYMGNASIIPRNYRKYLYHAYLAYMEANGYRNVLSLKMFGLGLPVMLKEYGLNYEKRHTKQGIQTNLTLKEESYGDWLPK”, the “soluble on expression in E. coli” value was “soluble”.
With “DAPAGGNAFEEMEKHAKEFQKTFSEQFNSLVNSKNTQDFNKALKDGSDSVLQQLSAFSSSLQGAISDANGKAKEALEQARQNVEKTAEELRKAHPDVEKEANAFKDKLQAAVQTTVQESQKLAKEVASNMEETNKKLAPKIKQAYDDFVKHAEEVQKKLHEAATKQ” the “soluble on expression in E. coli” value was “soluble”.
For “DAPLPHLRFALASCANWEAGFFAAYGDIARRADAGELEMLIFLGDYIYEYATGMFAGKDGVVRPHQPLHETITLEHYRTRYGHYRSDNHLQAAHAALPWIVMWDDHESANNSNREGAQNHSADEGSWVDRQNAARQVFLEWMPIRQEDTLYRSFTFGDLATLSLLDLRSFRDPAPSQQQWLEGQRADTMMGSQQFEWLKSNVEHTTTTWNIIGSSVMFAPMAITGQPLFQIPEPIPANLDQWDGYSRERDRLLAVLADFATPTLFLSGDIH”, the “soluble on expression in E. coli” value was “not soluble”.
For “DEDDSADNIHAVSSERWRIHAATEIEDINTFFGTEYSSEEADTIGGLVIQELGHLPVRGEKVLIGGLQFTVARADNRRLHTLMATRVK”, the “soluble on expression in E. coli” value was “soluble”.
In the case of “DFGKAMYIDNPRDHAVKHFSKVYQCQSADDVQAVKKKLYDDKTAIIEKVAEQTKSFDVASTQVSGRSLKGSIDVPTLPALPQPETRQGAPKLSVLISSAQEAMLCEYQDIDVYYQLPMGLSGELSAMIELFQANPMLKPWFPAILIGEDYQAARVFLETIQPELLITNNSGVGMITKELGLGWVAGPQMNTVNSYAFKCLQDEFAASGAFVSNELNMKQMRHIKRPKNMRSFYSIYHPNTLLTSRQCLFQQTEGCRKVKVNKGCLKRCDKRTSIINLKDNPYVVQKQKGSHNSIYSEHNVLNLQVLHDLPQLFTDVLIDLRDIQTETKVSASKPELIDAFLALLEDHSEQAIQTLNAMIQPTANAQYLKGL”, the “soluble on expression in E. coli” value is reported as “not soluble”.
With “DGDQCETSPCQNQGKCKDGLGEYTCTCLEGFEGKNCELFTRKLCSLDNGDCDQFCHEEQNSVVCSCARGYTLADNGKACIPTGPYPCGKQTLERRKRSVAQATSSSGEAPDSITWKPYDAADLDPTENPFDLLDFNQTQPERGDNNLTR” the “soluble on expression in E. coli” value was “soluble”.
With DGGTMENLSRRLKVTGDLFDIMSGQT the “soluble on expression in E. coli” value was “soluble”.
With “DHPFTSAPTFGDFGSNQQAMPLYRVEPVYPSRALKRGVEGFVTLSFTIDTTGKAVDINVVDANPKRMFEREAMQALKKWKYQPQIVDGKAIEQPGQTVTVEFKIAK” the “soluble on expression in E. coli” value was “soluble”.
For “DIELTQTPVSLAASLGDRVTISCRASQDINNFLNWYQQKPDGTIKLLIYYTSRLHAGVPSRFSGSGSGTDYSLTISNLEPEDIATYFCQHHIKFPWTFGAGTKLEIK”, the “soluble on expression in E. coli” value was “soluble”.
With “DIHQEMDREELELEEVDLYRMNSQDKLGLTVCYRTDDEDDIGIYISEIDPNSIAAKDGRIREGDRIIQINGIEVQNREEAVALLTSEENKNFSLLIARPELQLDEGWMDDD” the “soluble on expression in E. coli” value was “soluble”.
For “DKSYRSTKEIMEYANRFLNDTSIIPMVRSGEKVQSLSISSEDEFVDRVTYAIDDMKKEGIETIGVICENMHDTKYFGELLKSKKYINIIEKENQIYTGGETVMPSYFAKGLEFDGVILVSRENKENKDRVLYVMATRALHKLYDFHIEF”, the “soluble on expression in E. coli” value was “not soluble”.
For “DKVTQSSPDQTVASGSEVVLLCTYDTVYSNPDLFWYRIRPDYSFQFVFYGDDSRSEGADFTQGRFSVKHILTQKAFHLVISPVRTEDSATYYCAFTLPPPTDKLIFGKGTRVTVEP”, the “soluble on expression in E. coli” value was “soluble”.
In the case of DLDLEMLAPYIPMDDDFQLR, the “soluble on expression in E. coli” value is reported as “soluble”.
In the case of “DLPGVVIFLHGVNDPGASYESVETGLCQGVNERLDRPDLVPGRYGGKYKEAGNVPYEKRDSDQKVILDDPDTYLYRRDASDPKTHSLLIPFYWGHRAAPDQIKRDDAGDPFRMRNQFQDINGNRLDRHFAKAGGFIANATNNIPDVYGEGFRPNLKSIALETFKPDNALYFGHSPARHYCVLAAHRLAMLIREIRRVSPDETITIMGHSQGTIVTLLAQALLVDGGDRCADTFIMVDTPYCVLPGNTPKDQDTFSTLVGIVTAITNMPHTQPAMSELRDAKTYCGRSGSRWLPTQGIRKNKVGSMTVFPERDNRGKVYLYFCPDDTTVSLDDVQ”, the “soluble on expression in E. coli” value is reported as “not soluble”.
In the case of “DLVASGATLPEIQKRGYLTVAVKDNLRPLGFRDDKGNLQGLEIDLAKRLANDLLGKPDAVKFQPVANSDRLPVIVENKIDLAIANVTATESRSRIVSFSVPYYYDGAAIVTKDTSINQLEDLYRRKIAVLNNSSTIFYVKYFIPKSELIGVSSYAQAQEKIESNAVDAFAADNSLLSGWVQEYPKYHILPSQLSTEPLSVVMAKGLQYDEFRRSVNEAIARYIATGWLKESTQHWGLGNSQEKTLTTDR”, the “soluble on expression in E. coli” value is reported as “not soluble”.
For “DNDSAPKEPTGPVTLIFTDIESSTALWAAHPDLMPDAVATHHRLIRSLITRYECYEVKTVGDSFMIASKSPFAAVQLAQELQLCFLRLDWETNAVDESYREFEEQRAEGECEYTPPTASLDPEVYSRLWNGLRVRVGIHTGLCDIRYDEVTKGYDYYGRTSNMAARTESVANGGQVLMTHAAYMSLSGEDRNQLDVTTLGATVLRGVPEPVRMYQLNAVPGRNFAALRLDR”, the “soluble on expression in E. coli” value was “soluble”.
With “DPSEPGHADHLTAVMADAQPAIVLTNNASAAAVRRFFSALPGAQRPRIISIDSLPDTLAQSYQIPTPSMAAAAINPVDLPAFLQYTSGSTRTPAGVVLTNRSIVTNVLQIFAAAQLKTPLRLVSWLPL” the “soluble on expression in E. coli” value was “not soluble”.
With “DQVDVKDCANNEIKKVMVDGCHGSDPCIIHRGKPFTLEALFDANQNTKTAKIEIKASLDGLEIDVPGIDTNACHFVKCPLVKGQQYDIKYTWNVPKIAPKSENVVVTVKLIGDNGVLACAIATHGKIRD” the “soluble on expression in E. coli” value was “soluble”.
For “DSDLYAELRCLCIKTTSGIHPKNIQSLEVIGKGTHCNQVEVIATLKDGRKICLDPDAPRIKKIVQKKLAGDESAD”, the “soluble on expression in E. coli” value was “soluble”.
In the case of “DSNLLLKLGMLTGRIVPDNQAVYAKDFKPESILGASNLSFRGNVNISEGQSADVVFLNADNGILVQDLPFEVKLKKFHIDFYNTGMPRDFASDIEVTDKATGEKLERTIRVNHPLTLHGITIYQASFADGGSDLTFKAWNLGDASREPVVLKATSIHQFPLEIGKHKYRLEFDQFTSMNVEDMSEGAEREKSLKSTLNDVRAVTQEGKKYTNIGPSIVYRIRDAAGQAVEYKNYMLPVLQEQDYFWITGTRSGLQQQYRWLRIPLDKQLKADTFMALREFLKDGEGRKRLVADATKGAPAEIREQFMLAAENTLNIFAQKGYLGLDEFITSNIPKEQQDKMQGYFYEMLYGVMNAALDETIRRYGLPEWQQDEARNRFLLHSMDAYTGLTEYPAPMLLQLDGFSEVRSSGLQMTRSP”, the “soluble on expression in E. coli” value is reported as “not soluble”.
With DTHFPICIFCCGCCHRSKCGMCCKT the “soluble on expression in E. coli” value was “soluble”.
For “DVTDIKVKEAEIVSKSVAIREIHHRVKNNLQSVVSLLRIQGRRSTSVEAQKVLNESVSRILAIAATHELLSKQMEDGINLYMVIEAVAYNIERCCNDCPQVAVRMDI”, the “soluble on expression in E. coli” value was “not soluble”.
